From patent US20050124041A1 (YUHAN, published 2005)

Target: T1, recombinant human tumor necrosis factor-α (Biosource PHC3011, Belgium) (human, UniProt P01375 77-233)
T1 construct: Bought recombinant protein; also called hTNFα; hTNF-α
Assay: competitive ELISA: TSK11 pre-incubated with soluble hTNFα, then added to hTNFα-coated wells; Scatchard plot analysis (Friguet method)
Method: In vitro binding affinity of TSK11 antibody against hTNFα was determined by ELISA assay. Here, each well was coated with 100 μl of recombinant hTNFα at a concentration of 4 μg/ml. Next, in Micro Tube (AXYGEN, U.S.A.) recombinant hTNFα was diluted with PBS solution supplemented with 0.02% bovine serum albumin to obtain the final concentration ranging from 5×10⁻⁹ M to 1×10⁻¹⁰ M. hTNFα diluents having various concentrations were mixed with 30 μg of TSK11 antibody and maintained at 37° C. for 2 hours. The mixed solution was distributed to the each well coated with the recombinant hTNFα, and incubated at 37° C. for 2 hours. Then, 100 μl of a horseradish peroxiadase substrate solution (Bio-rad, 172-1064) was added to the each well and kept at 37° C. for 3 minutes to induce color development. The absorbance of the each well was measured at 410 nm with ELISA reader (Dinatec inc., U.S.A.).
Apparent affinity was determined by calculating a reciprocal of the antigen concentration required in inhibiting 50% of the maximum binding in the competitive ELISA according to Scatchard plot analysis (Friguet E. et al., J. of Immunological Method 77: 305-319, 1985).

T1 sequence (P01375 77-233 limits assumed): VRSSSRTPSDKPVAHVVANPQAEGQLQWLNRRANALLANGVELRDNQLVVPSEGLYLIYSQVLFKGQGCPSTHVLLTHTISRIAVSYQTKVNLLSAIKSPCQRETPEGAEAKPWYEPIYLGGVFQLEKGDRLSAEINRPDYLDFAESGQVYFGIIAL

B1: monoclonal antibody produced from the hybridoma cell line TSK11 (antibody, IgG1, V domains shown)
VH: QVQLVQSGPELKKPGETVKISCKASGYTFTHYGMNWVKQAPGEGLKWMGWINTNTGEPRYDEEFKGRFAFSLETSASTAYLQINNLRREDTATYFCARYDSRGFDCWGQGTTLTVSS
VL: QIVLTQSPAIMSASLGERVTMTCTASSSISYNYFHWYQQRPGSSPKLWIYSSSNLASGVPPRISGSGSGTSYSLTISSMEAEDAATYYCHQYERSPWTFGGGTKLEIKR
notes: Mouse hybridoma antibody; also called TSK11 antibody
- Kd: 1.95 nM
